Experimental data: FireProtDB (doi:10.1074/jbc.m304177200)

Conditions: Kitasatospora aureofaciens; pH 7; Thermal; CD; MOPS 30 mM; reversible: yes(>95%); whole UniProt chain shown

B1: Guanyl-specific ribonuclease Sa wild type, P05798 (protein)
chain: DVSGTVCLSALPPEATDTLNLIASDGPFPYSQDGVVFQNRESVLPTQSYGYYHEYTVITPGARTRGTRRIITGEATQEDYYTGDHYATFSLIDQTC
With B1 the Tm was 48.4 °C and the “unfolding enthalpy (van 't Hoff)” value was 95 kcal/mol.
